Assay results: PMC4559223
Like-named read-outs stand apart in the source and are kept apart here.

B1: OPP DNA (crystal) (dsDNA)
DNA 1: TTGATAAATCAGAGATAACC
DNA 2: AAGGTTATCTCTGATTTATC
B2: ADJ DNA (crystal) (dsDNA)
DNA 1: TTCTGATAAGACTTATCTGC
DNA 2: AAGCAGATAAGTCTTATCAG

What was measured:
GATA3 C-finger [1] = biological target: T1, GATA3 C-finger (mouse, UniProt P23772 308-370); test: X-ray crystallography
GATA3 C-finger [2] = biological target: T1, GATA3 C-finger; test: X-ray crystallography; remark: listed apart in the source

T1 sequence (P23772 308-370): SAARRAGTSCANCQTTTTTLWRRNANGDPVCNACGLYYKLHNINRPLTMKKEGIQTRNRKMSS

Row | Binder | binding result (GATA3 C-finger [1]) | binding result (GATA3 C-finger [2])
1 | B1 | binds | –
2 | B2 | – | binds
